# B1: 33C2/CD3-R3 (bispecific antibody, human IgG1, kappa, N297A)
# heavy 1: not shown
# heavy 2: QVQLVQSGAEVKKPGASVKVSCKASGYSFTGYAMNWVRQAPGQRLEWIGLINPYNGGAMYNQKFKGRATLTVDTSASTAYMELSSLRSEDTAVYYCARDYRYEGHLDYWGQGTLVTVSSASTKGPSVFPLAPSSKSTSGGTAALGCLVKDYFPEPVTVSWNSGALTSGVHTFPAVLQSSGLYSLSSVVTVPSSSLGTQTYICNVNHKPSNTKVDKKVEPKSCDKTHTCPPCPAPELLGGPSVFLFPPKPKDTLMISRTPEVTCVVVDVSHEDPEVKFNWYVDGVEVHNAKTKPREEQYASTYRVVSVLTVLHQDWLNGKEYKCKVSNKALPAPIEKTISKAKGQPREPQVCTLPPSREEMTKNQVSLSCAVKGFYPSDIAVEWESNGQPENNYKTTPPVLDSDGSFFLVSKLTVDKSRWQQGNVFSCSVMHEALHNHYTQKSLSLSPGK
# light 1: EIVLTQSPATLSLSPGERATLSCSATSSVSYMHWYQQKPGQAPRRWIYDTSKLASGIPARFSGSGSGTSYTLTISSLEPEDFAVYYCQQWSSDSPTFGQGTKLEIKRTVAAPSVFIFPPSDEQLKSGTASVVCLLNNFYPREAKVQWKVDNALQSGNSQESVTEQDSKDSTYSLSSTLTLSKADYEKHKVYACEVTHQGLSSPVTKSFNRGEC
# light 2: DIVMTQSPDSLAVSLGERATINCKSSQSLLNSRTRKNYLAWYQQKPGQPPKLLIYWASTRQSGVPDRFSGSGSGTDFTLTISSLQAEDVAVYYCTQSHTLRTFGGGTKVEIKPDIQNPDPAVYQLRDSKSSDKSVCLFTDFDSQTQVSQSKDSDVYITDKCVLDMRSMDFKSNSAVAWSQKSDFACANAFQNSIIPEDTFFPSPESS
# notes: As 33C2/CD3-R2 but with the (G4S)3 linker; also called anti-CLL-1/anti-CD3 bispecific antibody with (G4S)3 linker
# B2: 33C2/CD3-R2 (bispecific antibody, human IgG1, kappa, N297A)
# heavy 1: not shown
# heavy 2: B1 heavy 2
# light 1: B1 light 1
# light 2: B1 light 2
# notes: WuXiBody format, 2+1: Heavy Chain-1 = CLL1 Fab heavy, linker, CD3 heavy (TCR constant region), Fc knob; Heavy Chain-2 = CLL1 Fab heavy, Fc hole; Two CLL1 light chains follow from the two CLL1 Fab heavy parts; also called anti-CLL-1/anti-CD3 bispecific antibody with (G4S)2 linker
# Columns and labels:
# [1] = biological target: T1, human CLL-1 on cells (human, UniProt Q5QGZ9 1-265); assay: cell-based or functional assay
# T1 sequence (looked up): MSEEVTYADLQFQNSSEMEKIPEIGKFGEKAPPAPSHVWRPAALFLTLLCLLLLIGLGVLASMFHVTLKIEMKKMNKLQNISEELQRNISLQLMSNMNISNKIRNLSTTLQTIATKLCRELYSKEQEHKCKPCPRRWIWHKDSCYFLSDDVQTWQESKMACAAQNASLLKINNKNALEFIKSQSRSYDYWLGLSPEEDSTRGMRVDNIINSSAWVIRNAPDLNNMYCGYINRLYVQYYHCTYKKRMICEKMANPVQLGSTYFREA
# [2] = biological target: T1, human CLL-1 on cells; assay: cell-based or functional assay; remark: listed apart in the source
# [3] = biological target: T1, human CLL-1 on cells; assay: cell-based or functional assay; remark: listed apart in the source
# [4] = biological target: T1, human CLL-1 on cells; assay: cell-based or functional assay; remark: listed apart in the source
# [5] = biological target: T1, human CLL-1 on cells; assay: FACS (PE-anti-human IgG), U937 cells
# Procedure: (§1) To evaluate the tumor antigen binding property of the bispecific antibody of Example 3, the binding ability of CLL1 targeting portions of 33C2/CD3-R2 and 33C2/CD3-R3 to CLL1 expressed in mammalian cells were analyzed by using FACS.
# (§2) Briefly, CLL1 positive cells (U937 and HL60) were incubated with 33C2/CD3-R2 and 33C2/CD3-R3 antibodies. After washing with a FACS buffer (1% BSA in PBS), the PE-anti-human IgG antibodies were added to each well and incubated at 4° C. for 60 min. The MFI (Median Fluorescence Intensity) of PE (phycoerythrin) was evaluated by FACS Calibur. BsAb mock/CD3, which has an anti-CD3 antigen-binding fragment at one arm, and no antigen-binding fragment at another arm, was used as a control group.
# [6] = biological target: T1, human CLL-1 on cells; assay: FACS (PE-anti-human IgG), HL-60 cells
# Procedure: as §1, §2
Binder,"T-cell activation (NFAT reporter effector cells) with HL-60, EC50 [1] [pM]","T-cell activation (NFAT reporter effector cells) with U937, EC50 [1] [pM]","CD25 on CD4 T cells, HL60 targets, EC50 [2] [pM]","CD25 on CD8 T cells, HL60 targets, EC50 [2] [pM]","CD69 on CD4 T cells, HL60 targets, EC50 [2] [pM]","CD69 on CD8 T cells, HL60 targets, EC50 [2] [pM]","U937 cell lysis (so in the source); Table 21 is the HL60 table by paragraph 356), EC50 [2] [pM]","CD25 on CD4 T cells, U937 targets, EC50 [3] [pM]","CD25 on CD8 T cells, U937 targets, EC50 [3] [pM]","CD69 on CD4 T cells, U937 targets, EC50 [3] [pM]","CD69 on CD8 T cells, U937 targets, EC50 [3] [pM]","U937 cell lysis, EC50 [3] [pM]","specific lysis of HL-60, PBMC donor ABL06, EC50 [4] [pM]","specific lysis of HL-60, PBMC donor ABL09, EC50 [4] [pM]","specific lysis of HL-60, PBMC donor ABL10, EC50 [4] [pM]","specific lysis of HL-60, PBMC donor ABL15, EC50 [4] [pM]","specific lysis of HL-60, PBMC donor ABL16, EC50 [4] [pM]","specific lysis of HL-60, PBMC donor ABL17, EC50 [4] [pM]","specific lysis of HL-60, PBMC donor ABL18, EC50 [4] [pM]","specific lysis of HL-60, PBMC donor ABL19, EC50 [4] [pM]",also measured
B1,40,16,1.94,2.09,0.8,0.57,0.97,1.23,1.1,0.61,~0.5,0.15,5.07,1.26,0.97,3.04,7.01,16.6,9.43,8.18,"specific lysis of U937, PBMC donor ABL06, EC50 [4]: 0.57 pM; specific lysis of U937, PBMC donor ABL09, EC50 [4]: 0.08 pM; specific lysis of U937, PBMC donor ABL10, EC50 [4]: 0.15 pM; specific lysis of U937, PBMC donor ABL15, EC50 [4]: 0.04 pM; specific lysis of U937, PBMC donor ABL16, EC50 [4]: 0.03 pM; specific lysis of U937, PBMC donor ABL17, EC50 [4]: 1.69 pM; specific lysis of U937, PBMC donor ABL18, EC50 [4]: 3.05 pM; specific lysis of U937, PBMC donor ABL19, EC50 [4]: 0.39 pM; EC50 [5]: 250 pM; EC50 [6]: 90 pM"
B2,30,16,1.15,1.09,0.54,0.36,0.86,0.39,0.3,0.21,0.14,0.05,4.42,1.27,0.86,3.16,5.14,5.85,3.97,9.09,"specific lysis of U937, PBMC donor ABL06, EC50 [4]: 0.54 pM; specific lysis of U937, PBMC donor ABL09, EC50 [4]: 0.13 pM; specific lysis of U937, PBMC donor ABL10, EC50 [4]: 0.05 pM; specific lysis of U937, PBMC donor ABL15, EC50 [4]: 0.16 pM; specific lysis of U937, PBMC donor ABL16, EC50 [4]: 0.05 pM; specific lysis of U937, PBMC donor ABL17, EC50 [4]: 1.1 pM; specific lysis of U937, PBMC donor ABL18, EC50 [4]: 1.63 pM; specific lysis of U937, PBMC donor ABL19, EC50 [4]: 0.32 pM; EC50 [5]: 230 pM; EC50 [6]: 90 pM"
